In paper PMC2213524 (The Journal of Experimental Medicine, 2000):

Biological target: Histidine-tagged rat N-WASP (rat, UniProt O08816 1-501)
Experiment: pull-down

Sequence of Histidine-tagged rat N-WASP (O08816 whole entry): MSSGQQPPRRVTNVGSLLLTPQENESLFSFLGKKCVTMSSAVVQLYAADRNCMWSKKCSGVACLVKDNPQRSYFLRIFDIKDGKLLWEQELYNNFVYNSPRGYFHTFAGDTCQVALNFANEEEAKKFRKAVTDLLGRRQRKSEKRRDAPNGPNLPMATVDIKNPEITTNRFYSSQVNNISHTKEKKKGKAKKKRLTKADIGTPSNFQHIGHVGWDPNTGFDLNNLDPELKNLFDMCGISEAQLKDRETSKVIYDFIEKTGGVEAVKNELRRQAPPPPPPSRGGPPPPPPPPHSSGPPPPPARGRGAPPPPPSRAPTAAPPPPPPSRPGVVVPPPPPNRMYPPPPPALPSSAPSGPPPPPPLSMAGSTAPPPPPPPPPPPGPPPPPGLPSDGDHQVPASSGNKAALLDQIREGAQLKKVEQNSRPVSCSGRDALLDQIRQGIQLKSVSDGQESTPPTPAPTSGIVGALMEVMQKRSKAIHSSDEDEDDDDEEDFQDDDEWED

- fold change of coprecipitated amount with Cdc42-G12V (GTPγS) against without: 1.2 fold
B1: Recombinant VirG-α1 protein (Thr53–Arg759 of VirG polypeptide) (domain or fragment, S. flexneri, UniProt Q7BCK4 53-759, looked up)
chain: TPLSGTQELHFSEDNYEKLLTPVDGLSPLGAGEDGMDAWYITSSNPSHASRTKLRINSDIMISAGHGGAGDNNDGNSCGGNGGDSITGSDLSIINQGMILGGSGGSGADHNGDGGEAVTGDNLFIINGEIISGGHGGDSYSDSDGGNGGDAVTGVNLPIINKGTISGGNGGNNYGEGDGGNGGDAITGSSLSVINKGTFAGGNGGAAYGYGYDGYGGNAITGDNLSVINNGAILGGNGGHWGDAINGSNMTIANSGYIISGKEDDGTQNVAGNAIHITGGNNSLILHEGSVITGDVQVNNSSILKIINNDYTGTTPTIEGDLCAGDCTTVSLSGNKFTVSGDVSFGENSSLNLAGISSLEASGNMSFGNNVKVEAIINNWAQKDYKLLSADKGITGFSVSNISIINPLLTTGAIDYTKSYISDQNKLIYGLSWNDTDGDSHGEFNLKENAELTVSTILADNLSHHNINSWDGKSLTKSGEGTLILAEKNTYSGFTNINAGILKMGTVEAMTRTAGVIVNKGATLNFSGMNQTVNTLLNSGTVLINNINAPFLPDPVIVTGNMTLEKNGHVILNNSSSNVGQTYVQKGNWHGKGGILSLGAVLGNDNSKTDRLEIAGHASGITYVAVTNEGGSGDKTLEGVQIISTDSSDKNAFIQKGRIVAGSYDYRLKQGTVSGLNTNKWYLTSQMDNQESKQMSNQESTQMSSRR
